Data as given in patent US20170212130A1.

Molecular target: S. cerevisiae Nup84-GFP (S. cerevisiae) (UniProt P52891)
Experiment: signal to noise ratio of Coomassie bands, Nup84-GFP affinity isolation on LaG-Dynabeads

Nup84-GFP S:N: 0.1
B1: LaG-8 (VHH)
VHH: QVQLVESGGGLVQHGGSLRLSCVTSGFTFDIHDMGWFRQAPGKERDIVARISKSGDITYYADSVKGRFIISRDNTKNTVYLQMNSLKPEDTAVYYCAATLRATITSFDEYVYRGQGTQVTVS
